The source of these data is publication PMC7693655, “The Partner Switching System of the SigF Sigma Factor in Mycobacterium smegmatis and Induction of the SigF Regulon Under Respiration-Inhibitory Conditions” (Frontiers in Microbiology, 2020).

Assay [1] concerns the target RsbW1 (MSMEG_1803), purified from E. coli (pT7-7rsbW1) (M. smegmatis) (UniProt A0QTD7). In words: native gel or EMSA; non-denaturing PAGE, CBB stain; 160 pmol RsbW1 mixed with increasing amounts of WT, S63A or S63E RsfB in binding buffer [40 mM Tris-HCl (pH 8.0), 0.01 mM EDTA, 10 mM MgCl2, 20% (v/v) glycerol], 30 min at 25°C. Background: In EMSA bound probe runs differently from free probe, usually more slowly.

The target of assay [2] is T1, RsbW1 (MSMEG_1803), purified from E. coli (pT7-7rsbW1) (M. smegmatis, UniProt A0QTD7 1-138).
T1 construct: Anti-sigma factor RsbW1 of Mycobacterium smegmatis, locus MSMEG_1803, 138 amino acids; also called purified RsbW1; source: E. coli BL21 (DE3) with pT7-7rsbW1, purified (Ni-Sepharose)
T1 sequence (looked up): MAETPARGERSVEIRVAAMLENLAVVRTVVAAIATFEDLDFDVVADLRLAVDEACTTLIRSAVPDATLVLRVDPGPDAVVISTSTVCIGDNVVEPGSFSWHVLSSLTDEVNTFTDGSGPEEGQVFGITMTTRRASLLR
Described as above. Conditions: both partners purified.

The term stoichiometry N denotes a count of units in the complex or per binding partner. “C-terminally His6-tagged S63A RsfB purified from E. coli (natural protein)”: the stoichiometry N in assay [1] was 1.

B1: C-terminally His6-tagged WT RsfB (MSMEG_6127) purified from E. coli (natural protein, M. smegmatis, UniProt A0R5B0 1-119, looked up)
chain: MTSQDPANCTVEERRVGDITVVAVTGTVDMLTAPKLEDAIGSAAKSEPSAVVVDLSAVDFLASAGMGVLVAAHGELAPAVRLVVVADGPATSRPLKLVGIADVVDLFATLDEALSSLKT
notes: Anti-SigF antagonist RsfB of Mycobacterium smegmatis, locus MSMEG_6127; unphosphorylated when made in E. coli; also called RsfB-His6; source: E. coli BL21 (DE3) with pT7-7rsfB, purified (Ni-Sepharose twice, PD-10 desalting)
Regarding B1, the “stoichiometry N” value in assay [2] worked out at 1.
